Laboratory results: patent publication US20130109048A1, “METHOD FOR IN-VITRO MONITORING OF NEURONAL DISORDERS AND USE THEREOF” (ECOLE POLYTECHNIQUE FEDERALE DE LAUSANNE (EPFL), priority 2010, published 2013)
“Also recorded” adds a separate entry of the source.

B1: BDNF: recombinant human brain-derived neurotrophic factor (R&D Systems) (protein, UniProt P23560 19-247, looked up)
Neurotrophic factor BDNF …: APMKEANIRGQGGLAYPGVRTHGTLESVNGPKAGSRGLTSLADTFEHVIEELLDEDQKVRPNEENNKDADLYTSRVMLSSQVPLEPPLLFLLEEYKNYLDAANMSMRVRRHSDPARRGELSVCDSISEWVTAADKKTAVDMSGGTVTVLEKVPVSKGQLKQYFYETKCNPMGYTKEGCRGIDKRHWNSQCRTTQSYVRALTMDSKKRIGWRFIRIDTSCVCTLTIKRGR

Experiments:
[1] = tested on: rat primary cortical neurons; test: MEA recording of spontaneous electrical activity (population bursts), TrkB inhibitor experiments; type: cell-based; details: K252a 10 nM or 100 nM; 30 min recordings 45 min and 24 h after addition; cultures at 14-15 DIV
Protocol: Cortical cells were prepared and cultured as described previously (Van Pelt et al., 2004, IEEE Trans. Biomed. Eng., 51: 2051-2062). Cells were plated on multielectrode arrays (MEAs) and/or culture dishes, with prior surface coating by polyethylenimine (10 mg/ml, Fluka) and laminin (0.02 mg/ml, Gibco) in Neurobasal medium (MEAs) or poly-L-lysine (0.01%) in water (culture dishes), respectively, which allow the cells to readily attach to the surface and extend neurites. Plating density was 1′500 cells/mm^2 for MEAs, allowing for quick network formation and high multichannel electrophysiological recordings efficiency. A lower density of 500 cells/mm^2 was used for culture dishes, to facilitate cell counting and morphological analysis. […]
After 5 min of accommodation time following the mounting of each MEA inside the recording setup, spontaneous electrical activity from the cultured neurons was detected, amplified, and recorded at each of the 60 substrate extracellular electrodes simultaneously for 30 min at 20 kHz/channel. Recorded traces consisted in electric voltage signals whose sudden small large amplitude fluctuations are known to be produced by the nerve impulse discharges emitted by neurons growing in close proximity to the substrate electrodes that detect them extracellularly, directly related to the firing of action potentials by the neurons in the proximity of each electrode. […]

[2] = tested on: rat primary cortical neurons; test: Neuronal viability by counts of NeuN-positive nuclei; type: cell-based; details: cultures treated with K252a 10 nM or 100 nM
Protocol: Cultures were washed with PBS and fixed in 4% paraformaldehyde (Fluka/Sigma, Buchs, Switzerland) or in methanol (Merck, Germany) for PSD95 (Post-synaptic density protein of 95 kDa) staining for 10 min at 4° C. Cultures were incubated with NeuN antibody which reacts with fox-3 (1:500, Chemicon, Temecula, Calif.) or 2B4 antibody which reacts with huntingtin (1:500 Millipore, Zug, Switzerland), antibody which reacts with postsynaptic density protein of 95 kDa (PSD95) (Sans et al., 2000, J. Neurosci. 20:1260-71) (1:200, Affinity Bioreagents, Golden, Colo.) and antibody which reacts neuronal class III beta-tubulin Tuj1 (Jepsen et al., 2000, Cell 102(6): 753-763) (1:2000, Covance, Emerville, Calif.) in PBS containing 10% normal goat serum (NGS, Gibco, Invitrogen, Basel, Switzerland) and 0.1% Triton X-100 (TX, Fluka, Sigma, Buchs, Switzerland). Cultures were rinsed three times in PBS and then incubated for 1 hour with fluorescent goat anti-mouse secondary antibodies (for NeuN: 1:1000 Cy3-conjugated antibody from Jackson Immunoresearch Laboratories, WestGrove, Pa.; for 2B4: 1:1000 Alexa Fluor® 488-conjugated antibodies from Invitrogen, Basel, Switzerland, for Tuj1: 1:1000 Alexa Fluor® 594-conjugated antibody from Invitorgen, Basel, Switzerland). Where indicated, cultures were stained with Hoechst 33342 dye (Invitrogen, Basel, Switzerland). […]

[3] = tested on: htt171-82Q-expressing cortical cells; test: Counting of PSD95-positive plasma membrane subdomains (punctae) by immunostaining; type: cell-based, rat; details: BDNF 50 ng/ml added twice weekly; htt171-82Q cells
Protocol: Cultures were washed with PBS and fixed in 4% paraformaldehyde (Fluka/Sigma, Buchs, Switzerland) or in methanol (Merck, Germany) for PSD95 (Post-synaptic density protein of 95 kDa) staining for 10 min at 4° C. Cultures were incubated with NeuN antibody which reacts with fox-3 (1:500, Chemicon, Temecula, Calif.) or 2B4 antibody which reacts with huntingtin (1:500 Millipore, Zug, Switzerland), antibody which reacts with postsynaptic density protein of 95 kDa (PSD95) (Sans et al., 2000, J. Neurosci. 20:1260-71) (1:200, Affinity Bioreagents, Golden, Colo.) and antibody which reacts neuronal class III beta-tubulin Tuj1 (Jepsen et al., 2000, Cell 102(6): 753-763) (1:2000, Covance, Emerville, Calif.) in PBS containing 10% normal goat serum (NGS, Gibco, Invitrogen, Basel, Switzerland) and 0.1% Triton X-100 (TX, Fluka, Sigma, Buchs, Switzerland). […]
The synaptic status was investigated in htt171-82Q- and htt171-18Q-expressing cells. Numbers of PSD95-positive structures was quantified as described above as an indicator of postsynaptic specializations, which comprise zones where neurotransmitter receptors, particularly glutamate receptors, are clustered.

[4] = tested on: htt171-82Q-expressing cortical cells; test: MEA recording of spontaneous electrical activity in Huntington's disease cell model with BDNF; type: cell-based, rat; details: BDNF 50 ng/ml added twice weekly
Source text: Cells modeling in-vitro HD-related cortical dysfunction were engineered for use in a method according to the invention for showing that the effects of molecular changes on synaptic changes in cortical microcircuits exposed to mutant htt fragments could be measured by a method according to the invention. To this end, cortical cells E16-E19 Wistar rat embryos (Charles River, France) were engineered by lentiviral gene transfer using Human Immunodeficiency Virus Type 1 (HIV-1)-derived vectors to express the first 171 amino acids of normal or mutated htt under the control of a tetracycline response element-containing promoter as described in Rudinskiy et al., 2009, J. Neurochem., 111: 460-472 (FIGS. 1A,B) to achieve high transduction efficiency and high levels of transgene expression in rat primary cortical neurons following the protocol below.
Plasmids encoding the first 171 amino acids of mutated htt (htt171-82Q) (FIG. 6, SEQ ID NO: 14) or wild-type htt (htt171-18Q) (FIG. 6, SEQ ID NO: 15) under the control of a tetracycline-regulated element promoter, or the tetracycline-regulatable transactivator (tTA1) under the control of a phosphoglycerate kinase promoter were used to prepare self-inactivating lentiviral vectors (FIG. 1A) as described previously (Regulier et al., 2003, Hum. Mol. Genet., 12: 2827-2836). Lentiviral particles were re-suspended in phosphate-buffered saline (PBS)+1% bovine serum albumin and the particle content of viral batches was assessed by p24 ELISA (RETROtek, Gentaur, Paris, France) (Viral titering involves capture of p24 viral protein from the sample on a microtiter plate and detection with a second anti-p24 antibody and visualization via a colorimeteric horseradish-generated product detected at 450 nm) Cells were plated as described below. On the day following cell plating, cultures were infected with lentiviruses at ratios of 150 ng p24/1000 cells (tTA1) and 120 ng p24/1000 cells (htt171-82Q or htt171-18Q) (FIG. 1B).
Cortical cells were prepared and cultured as described previously (Van Pelt et al., 2004, IEEE Trans. Biomed. Eng., 51: 2051-2062). Cells were plated on multielectrode arrays (MEAs) and/or culture dishes, with prior surface coating by polyethylenimine (10 mg/ml, Fluka) and laminin (0.02 mg/ml, Gibco) in Neurobasal medium (MEAs) or poly-L-lysine (0.01%) in water (culture dishes), respectively, which allow the cells to readily attach to the surface and extend neurites. Plating density was 1′500 cells/mm^2 for MEAs, allowing for quick network formation and high multichannel electrophysiological recordings efficiency. A lower density of 500 cells/mm^2 was used for culture dishes, to facilitate cell counting and morphological analysis. Medium containing Neurobasal, 2% B-27 supplement (GIBCO, Invitrogen Corporation, ref 17504) and 10% horse serum (from GIBCO, Invitrogen Corporation, ref. 16050-130) was changed three times per week by removing 0.7 ml and adding 1 ml of fresh medium. Where indicated, recombinant human BDNF (R&D Systems, Minneapolis, Minn., USA) at a concentration of 50 ng/ml was added to the medium twice a week starting from in vitro day 4.
Commercial MEAs with planar TiN substrate electrodes (MultichannelSystems, Reutlingen, Germany) such as described in Potter and De Marse, 2001, above were employed for recording over long-term experiments the spontaneous electrical activity of mammalian neurons, maintained under healthy conditions ex-vivo. […]

[5] = compared to non-BDNF-treated htt171-82Q sister cultures, 23 days in vitro

Row | Molecule | PB (population burst) firing [1] | neuronal viability (NeuN counts) [2] | PSD95-positive bouton-like plasma membrane subdomains (punctae) [3] | PB frequencies [4, 5] | inter-burst intervals (IBIs) [4, 5] | PB duration distribution ([4]; htt171-82Q cells) | size of individual PBs (numbers of individual action potentials) ([4]; htt171-82Q cells) | number of total spikes ([4]; htt171-82Q cells, 30 min recording)
1 | COC(=O)[C@@]1(O)C[C@H]2O[C@]1(C)n1c3ccccc3c3c4c(c5c6ccccc6n2c5c31)C(=O)NC4 [TrkB inhibitor, K252a] | dose- and time-dependent loss of PB firing | without influencing neuronal viability | – | – | – | – | – | –
2 | B1 | – | – | increase PSD95-positive boutons; also recorded: reversed by BDNF treatment | significantly increased PB frequencies | decreased IBIs | extended to both the IBI and duration distributions | did not completely restore the size of individual PBs | number of total spikes remained lower
